Read-outs that look alike come from different tables or passages of the source.
Tests used:
[1] = target: T1, cynomolgus TNFSF9 (cTNFSF9), full length, overexpressed on HEK293T cells (cynomolgus); test: cell-based or functional assay
[2] = target: T2, human TNFSF9 (hTNFSF9), full length, overexpressed on HEK293T cells (human, UniProt P41273 1-254); test: cell-based or functional assay
[3] = target: T3, hTNFSF9-His (monomeric human TNFSF9 extracellular domain with 9x-Histidine tag) (human, UniProt P41273 50-254); test: SPR (Biacore)
T3 construct: also called hTNFSF9-His protein; monomeric hTNFSF9-His antigen

[4] = target: T4, cynomolgus TNFSF9 (cTNFSF9) protein, soluble recombinant (cynomolgus); test: SPR (Biacore)
T4 construct: extracellular domain; also called cynomolgus TNFSF9 protein

[5] = target: T5, human TNFSF9 (R&D Systems; #2295-4L-025/CF) (human, UniProt P41273 71-254, limits assumed); test: MSD ELISA: TNFSF9 + 1 ug/mL antibody, binding to coated TNFRSF9
T5 construct: also called TNFSF9 (ligand); TNFSF9 ligand

[6] = target: T5, human TNFSF9 (R&D Systems; …); test: as above; remark: listed apart in the source
[7] = target: T3, hTNFSF9-His (monomeric human TNFSF9 …); test: SPR (Biacore); remark: listed apart in the source
[8] = target: T4, cynomolgus TNFSF9 (cTNFSF9) protein, …; test: SPR (Biacore); remark: listed apart in the source
[9] = target: T1, cynomolgus TNFSF9 (cTNFSF9), full …; test: cell-based or functional assay; remark: listed apart in the source
[10] = target: T2, human TNFSF9 (hTNFSF9), full length, …; test: cell-based or functional assay; remark: listed apart in the source

T5 sequence (P41273 71-254 limits assumed): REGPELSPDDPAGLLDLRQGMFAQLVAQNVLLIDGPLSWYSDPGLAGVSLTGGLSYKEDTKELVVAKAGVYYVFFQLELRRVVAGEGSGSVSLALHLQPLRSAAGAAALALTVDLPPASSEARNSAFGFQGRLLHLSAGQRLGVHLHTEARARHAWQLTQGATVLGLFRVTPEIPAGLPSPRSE
T3 sequence (P41273 other isoform, or with tags, fused parts or gaps): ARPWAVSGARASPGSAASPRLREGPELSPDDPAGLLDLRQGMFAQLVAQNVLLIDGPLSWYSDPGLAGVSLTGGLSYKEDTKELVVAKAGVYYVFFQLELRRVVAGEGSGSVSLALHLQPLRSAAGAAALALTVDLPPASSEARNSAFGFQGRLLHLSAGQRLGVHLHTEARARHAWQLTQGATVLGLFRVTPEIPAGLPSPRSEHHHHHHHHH

Binder | % live cells, Fab-saporin killing, 250 pM antibody [1] [%] | % live cells, Fab-saporin killing, 250 pM antibody [2] [%] | Kd [3] [nM] | Kd [4] [nM] | % inhibition of ligand receptor interaction [5] [%] | % inhibition of ligand receptor interaction [6] [%] | Kd [7] [nM] | Kd [8] [nM] | % live cells, Fab-saporin killing, 250 pM antibody [9] [%] | % live cells, Fab-saporin killing, 250 pM antibody [10] [%]
SC113.14 (antibody, mouse IgG2a, V domains shown, mouse IgG2a) VH: QVQLQQSGAELVKPGASVKLSCKASGYTFTEYTIHWVKQKSGQGLEWIGWFYPGSGSLKFNEKFKDKATLTADISSNTVYMELSRLTSEDSAVYFCARHEDFFYFDSYTMDYWGQGTSVTVSS VL: QIVLTQSPAIMSASPGEKVTLTCSASSSVSSSYLYWYQQKPGSSPKLWIYSTSKLSSGVPARFSGSGSGTSYSLTISSMEAEDAASYFCHQWSTYPWTFGGGTKLEIK | 11 | 10.2 | 3 | 7 | -34 | – | – | – | – | –
SC113.15 (antibody, mouse IgG1, V domains shown, mouse IgG1) VH: QVQLQQSGAELAKPGASVKMSCKASGYTFTTFWMHWLKQRPGQGLEWIGYINPRTYFTYYNQKFEDQATLTADESSSTAYMQLNSLTSEDSAVYYCATHHGGFDVWGAGTTVTVSS VL: DVVMTQTPLSLPVSLGDQASISCRSSQSLVHSNGDTYLHWYLQKPGQSPKLLIYKVSNRFSGVPDRFSGSRSGTDFTLKISRVEAEDLGIYFCSQSTHVPYTFGGGTKLEIK | 107 | 20.2 | 5 | 11 | 42 | – | – | – | – | –
SC113.44 (antibody, mouse IgG1, V domains shown, mouse IgG1) VH: QVQLQQSGPELVKPGTSVRISCKASGYTFTSYYIHWVKQRPGQGLEWIGWIYPRDVDTKYNETFKGKATLTADKSSSTAYIQLNSLTSEDSAVYFCARELTGTVFDYWGQGTTLTVSS VL: QIVLSQSPAILSASPGEKVTMTCRASSSVTYMHWYQRKPGSSPKPWIYATSTLASGVPARFSGTGSGTSYSLTISRVEAEDAATYFCQQWSSNPLTFGAGTKLELK | – | – | – | – | – | 48 | 9 | 13 | 33.9 | 10.8

— patent US20190016812A1 (AbbVie / Abbott, published 2019)
